In the supplement of paper PMC9112550, “Optimization of the antimicrobial peptide Bac7 by deep mutational scanning” (BMC Biology, 2022):

Each sequence was assayed on Escherichia coli TOP10 (assay: shrunken log2 fold change of peptide-encoding DNA abundance (4.5 h post-induction vs induction); higher = less antimicrobial activity (less host growth inhibition)). Details: time post-induction: 4.5 h; library: site-saturation at positions 5, 18, 19, 20.
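Also: peptides expressed intracellularly from a pBAD plasmid library in pooled LB shake-flask culture, induced with 0.3% L-arabinose, DNA abundance read by NGS, three biological replicates, DESeq2 with apeglm shrinkage.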

Sequence | shrunken log2 fold change
RRIRRRPPRLPRPRPRPPHPPRP | 0.886
RRIRQRPPRLPRPRPRPENHPRP | -0.176
RRIRQRPPRLPRPRPRPDVYPRP | 0.0517
RRIRFRPPRLPRPRPRPYWFPRP | -0.0527
RRIRYRPPRLPRPRPRPLAEPRP | -0.149
RRIRMRPPRLPRPRPRPIQRPRP | 0.544
RRIRWRPPRLPRPRPRPTQKPRP | 0.482
RRIRGRPPRLPRPRPRPVEYPRP | -0.0779
RRIRTRPPRLPRPRPRPFFWPRP | 0.276
RRIRRRPPRLPRPRPRPTCWPRP | 0.225
RRIRDRPPRLPRPRPRPLQMPRP | 0.167
RRIRIRPPRLPRPRPRPILPPRP | 0.0798
RRIRQRPPRLPRPRPRPLKWPRP | 0.0646
RRIRQRPPRLPRPRPRPVPKPRP | -0.00476
RRIRTRPPRLPRPRPRPTSDPRP | 0.0524
RRIRSRPPRLPRPRPRPEWCPRP | 0.219
RRIRHRPPRLPRPRPRPWKSPRP | -0.0679
RRIRSRPPRLPRPRPRPRPDPRP | 0.218
RRIRQRPPRLPRPRPRPACWPRP | 0.401
RRIRARPPRLPRPRPRPLTLPRP | 0.0472
RRIRHRPPRLPRPRPRPMDSPRP | -0.00141
RRIRWRPPRLPRPRPRPPFLPRP | 0.26
RRIRCRPPRLPRPRPRPYTHPRP | -1.19
RRIRSRPPRLPRPRPRPNVIPRP | 0.0185
RRIRHRPPRLPRPRPRPHIGPRP | -0.0123

Sequence | shrunken log2 fold change
RRIRARPPRLPRPRPRPVSPPRP | 0.664
RRIRVRPPRLPRPRPRPIFSPRP | -0.628
RRIRRRPPRLPRPRPRPSEMPRP | 0.0772
RRIRDRPPRLPRPRPRPELSPRP | 1.55
RRIRQRPPRLPRPRPRPHSFPRP | -0.00144
RRIRGRPPRLPRPRPRPVYDPRP | 0.32
RRIRLRPPRLPRPRPRPDSKPRP | -0.24
RRIRARPPRLPRPRPRPAPYPRP | -0.0625
RRIRERPPRLPRPRPRPCFTPRP | -0.453
RRIRWRPPRLPRPRPRPWKSPRP | 0.0574
RRIRDRPPRLPRPRPRPMHSPRP | 0.117
RRIRYRPPRLPRPRPRPHMQPRP | -1.07
RRIRERPPRLPRPRPRPWFDPRP | -0.529
RRIRPRPPRLPRPRPRPECWPRP | 0.903
RRIRPRPPRLPRPRPRPCDKPRP | 0.0695
RRIRGRPPRLPRPRPRPDEYPRP | 0.168
RRIRDRPPRLPRPRPRPNCRPRP | 0.0111
RRIRFRPPRLPRPRPRPNRFPRP | -0.174
RRIRNRPPRLPRPRPRPIVEPRP | 0.0466
RRIRARPPRLPRPRPRPCSSPRP | 0.0291
RRIRIRPPRLPRPRPRPTNSPRP | -0.827
RRIRNRPPRLPRPRPRPPKEPRP | -0.166
RRIRRRPPRLPRPRPRPCISPRP | -0.0399
RRIRDRPPRLPRPRPRPQHPPRP | -0.00435
RRIRIRPPRLPRPRPRPHVLPRP | -0.198

Sequence | shrunken log2 fold change
RRIRKRPPRLPRPRPRPAYVPRP | 0.108
RRIRWRPPRLPRPRPRPNFEPRP | 0.00226
RRIRYRPPRLPRPRPRPFWTPRP | -0.111
RRIRRRPPRLPRPRPRPTLRPRP | 0.712
RRIRYRPPRLPRPRPRPVGYPRP | -0.152
RRIRMRPPRLPRPRPRPVYPPRP | 0.166
RRIRGRPPRLPRPRPRPPNRPRP | 0.427
RRIRNRPPRLPRPRPRPQKQPRP | 0.00917
RRIRTRPPRLPRPRPRPQHCPRP | -0.0947
RRIRKRPPRLPRPRPRPEQVPRP | 0.158
RRIRCRPPRLPRPRPRPKTEPRP | -0.0486
RRIRRRPPRLPRPRPRPMNEPRP | -0.0251
RRIRYRPPRLPRPRPRPTDTPRP | -0.392
RRIRFRPPRLPRPRPRPCCPPRP | -0.468
RRIRIRPPRLPRPRPRPTCQPRP | -0.215
RRIRHRPPRLPRPRPRPQQPPRP | 0.176
RRIRERPPRLPRPRPRPVAEPRP | 0.0949
RRIRERPPRLPRPRPRPNERPRP | -0.105
RRIRTRPPRLPRPRPRPGRDPRP | -0.0751
RRIRGRPPRLPRPRPRPMLEPRP | 0.778
RRIRLRPPRLPRPRPRPIIYPRP | -0.196
RRIRQRPPRLPRPRPRPMYDPRP | -0.0385
RRIRYRPPRLPRPRPRPCTTPRP | -0.256
RRIRVRPPRLPRPRPRPHRNPRP | -0.531
RRIRWRPPRLPRPRPRPKPIPRP | 0.477

Sequence | shrunken log2 fold change
RRIRTRPPRLPRPRPRPKFDPRP | -0.0528
RRIRPRPPRLPRPRPRPMLKPRP | 0.0171
RRIRARPPRLPRPRPRPMSHPRP | 0.148
RRIRERPPRLPRPRPRPQWPPRP | -0.0675
RRIRFRPPRLPRPRPRPWGIPRP | -0.0116
RRIRIRPPRLPRPRPRPWFMPRP | -0.503
RRIRWRPPRLPRPRPRPTTSPRP | 0.508
RRIRRRPPRLPRPRPRPLYGPRP | 0.0447
RRIRTRPPRLPRPRPRPKMFPRP | -0.0043
RRIRTRPPRLPRPRPRPTDGPRP | -0.0714
RRIRGRPPRLPRPRPRPICSPRP | 0.122
RRIRGRPPRLPRPRPRPATRPRP | 0.94
RRIRTRPPRLPRPRPRPSIIPRP | -0.647
RRIRLRPPRLPRPRPRPWYWPRP | 0.134
RRIRDRPPRLPRPRPRPLCWPRP | 0.824
RRIRMRPPRLPRPRPRPYLPPRP | -0.78
RRIRIRPPRLPRPRPRPFWFPRP | -0.684
RRIRFRPPRLPRPRPRPCGKPRP | -0.018
RRIRNRPPRLPRPRPRPAIGPRP | 0.0499
RRIRKRPPRLPRPRPRPSYDPRP | 0.0212
RRIRHRPPRLPRPRPRPNLIPRP | -0.00121
RRIRRRPPRLPRPRPRPGCRPRP | 0.459
RRIRGRPPRLPRPRPRPDVKPRP | 0.356
RRIRYRPPRLPRPRPRPRDLPRP | -0.372
RRIRMRPPRLPRPRPRPWNYPRP | -0.203

Sequence | shrunken log2 fold change
RRIRTRPPRLPRPRPRPINPPRP | -0.0274
RRIRIRPPRLPRPRPRPHMKPRP | -0.809
RRIRQRPPRLPRPRPRPAQNPRP | 0.231
RRIRTRPPRLPRPRPRPEKKPRP | 0.0368
RRIRYRPPRLPRPRPRPWLEPRP | -0.118
RRIRLRPPRLPRPRPRPPFRPRP | 0.526
RRIRVRPPRLPRPRPRPKNTPRP | -0.347
RRIRSRPPRLPRPRPRPQKQPRP | -0.122
RRIRMRPPRLPRPRPRPRMHPRP | 0.118
RRIRVRPPRLPRPRPRPGFVPRP | 0.0922
RRIRQRPPRLPRPRPRPEIIPRP | 0.0359
RRIRFRPPRLPRPRPRPNVPPRP | -0.0369
RRIRKRPPRLPRPRPRPSNRPRP | -0.00152
RRIRPRPPRLPRPRPRPAACPRP | 0.103
RRIRVRPPRLPRPRPRPYVVPRP | -0.0262
RRIRGRPPRLPRPRPRPTGSPRP | 0.864
RRIRLRPPRLPRPRPRPAKRPRP | 0.0374
RRIRDRPPRLPRPRPRPYPKPRP | -0.143
RRIRSRPPRLPRPRPRPLHDPRP | -0.0221
RRIRSRPPRLPRPRPRPTQTPRP | 1.09
RRIRCRPPRLPRPRPRPYTDPRP | -0.431
RRIRLRPPRLPRPRPRPRDVPRP | 0.176
RRIRQRPPRLPRPRPRPGALPRP | 0.0446
RRIRWRPPRLPRPRPRPLSYPRP | -0.243
RRIRRRPPRLPRPRPRPYRDPRP | -0.111

Sequence | shrunken log2 fold change
RRIRERPPRLPRPRPRPHAKPRP | 0.0118
RRIRVRPPRLPRPRPRPMPEPRP | -0.192
RRIRNRPPRLPRPRPRPGFYPRP | 0.00223
RRIRQRPPRLPRPRPRPYFRPRP | -0.368
RRIRLRPPRLPRPRPRPPTFPRP | 0.00353
RRIRERPPRLPRPRPRPEFFPRP | -0.131
RRIRIRPPRLPRPRPRPIFCPRP | -0.0695
RRIRIRPPRLPRPRPRPVDNPRP | -0.0726
RRIRMRPPRLPRPRPRPHMDPRP | -0.604
RRIRFRPPRLPRPRPRPPCKPRP | 0.352
RRIRMRPPRLPRPRPRPEKHPRP | 0.921
RRIRTRPPRLPRPRPRPWIEPRP | -0.042
RRIRLRPPRLPRPRPRPYGCPRP | -0.318
RRIRHRPPRLPRPRPRPEDRPRP | -0.0767
RRIRSRPPRLPRPRPRPQMHPRP | -0.351
RRIRFRPPRLPRPRPRPTFRPRP | -0.0216
RRIRNRPPRLPRPRPRPLALPRP | -0.239
RRIRHRPPRLPRPRPRPLFAPRP | 0.107
RRIRSRPPRLPRPRPRPCTPPRP | -0.312
RRIRNRPPRLPRPRPRPEFVPRP | 0.189
RRIRARPPRLPRPRPRPGTVPRP | 0.336
RRIRCRPPRLPRPRPRPYQWPRP | -0.714
RRIRPRPPRLPRPRPRPFIFPRP | 0.29
RRIRHRPPRLPRPRPRPMMRPRP | 0.0201
RRIRWRPPRLPRPRPRPVMMPRP | -0.385
